Results reported in PMC1952068.
Several values for one entry are separate records, joined by “and”; a condition that tells them apart may be missing. Equal values may be shown once.

Key:
Assay in all cases: fluorescence polarization
Conditions in all cases: 10 mM Tris-HCl pH 7.5, 50 mM NaCl, no Mg2+, room temperature; FP: 1 nM duplex, 0.1 mg/mL BSA, 20 min; EMSA: 250 nM enzyme, 15 min, 6% gel
R.Eco29kI R86A = tested on: R.Eco29kI R86A
R.Eco29kI Y49A = tested on: R.Eco29kI Y49A
R.Eco29kI wt = tested on: R.Eco29kI wt

Sequence: TTTTGGTACCGCGGCCGCAAGCTT (double strand) [24-bp duplex with Eco29kI site]
- Kd (R.Eco29kI R86A): 21 nM and 344 nM^n
- Kd (R.Eco29kI Y49A): 49 nM and 529 nM^n
- Kd (R.Eco29kI wt): 16 nM and 299 nM^n
